# Columns and labels:
# [1] = molecular target: T. thermophilus Csm2 (T. thermophilus); assay: cryo-EM structure; TthCsm bound to a 50-nt complementary target RNA, with noncomplementary ssDNA and 1 mM EDTA; 3.8 Å
# [2] = molecular target: T. thermophilus Csm3 (T. thermophilus); assay: as above
Substance,stoichiometry N [1],stoichiometry N [2]
T. thermophilus Csm2 (natural protein),4,–
T. thermophilus Csm3 (natural protein),–,6

# Source: article PMC6611850
